From article PMC8500459, “Novel Homologs of Isopentenyl Phosphate Kinase Reveal Class‐Wide Substrate Flexibility” (Chemcatchem, 2021)

Legend:
[1] = substrate: CC(C)=CCOP(=O)(O)O; assay: purified protein; conditions: ATP 1 mM (2 mM in methods), 25 mM Tris pH 7.8, 5 mM MgCl2, 37 °C
[2] = substrate: Nc1ncnc2c1ncn2[C@@H]1O[C@H](COP(=O)(O)OP(=O)(O)OP(=O)(O)O)[C@@H](O)[C@H]1O; assay: PK-LDH coupled assay, NADH A340; assay type: biochemical, Methanohalophilus mahii; conditions: isopentenyl phosphate (1) 1 mM, 25 mM Tris pH 7.8, 5 mM MgCl2, 37 °C
[3] = substrate: O=P(O)(O)OCc1ccccc1; assay: PK-LDH coupled assay, NADH A340; assay type: biochemical, Methanohalophilus mahii; conditions: ATP 1 mM (2 mM in methods), 25 mM Tris pH 7.8, 5 mM MgCl2, 37 °C
[4] = substrate: C=C(C)CCOP(=O)(O)O; assay: PK-LDH coupled assay, NADH A340; assay type: biochemical, Methanohalophilus mahii; conditions: ATP 1 mM (2 mM in methods), 25 mM Tris pH 7.8, 5 mM MgCl2, 37 °C
[5] = substrate: Nc1ncnc2c1ncn2[C@@H]1O[C@H](COP(=O)(O)OP(=O)(O)OP(=O)(O)O)[C@@H](O)[C@H]1O; assay: PK-LDH coupled assay, NADH A340; assay type: biochemical, Thermococcus paralvinellae; conditions: isopentenyl phosphate (1) 1 mM, 25 mM Tris pH 7.8, 5 mM MgCl2, 37 °C
[6] = substrate: O=P(O)(O)OCc1ccccc1; assay: PK-LDH coupled assay, NADH A340; assay type: biochemical, Thermococcus paralvinellae; conditions: ATP 1 mM (2 mM in methods), 25 mM Tris pH 7.8, 5 mM MgCl2, 37 °C
[7] = substrate: C=C(C)CCOP(=O)(O)O; assay: PK-LDH coupled assay, NADH A340; assay type: biochemical, Thermococcus paralvinellae; conditions: ATP 1 mM (2 mM in methods), 25 mM Tris pH 7.8, 5 mM MgCl2, 37 °C
[8] = substrate: Nc1ncnc2c1ncn2[C@@H]1O[C@H](COP(=O)(O)OP(=O)(O)OP(=O)(O)O)[C@@H](O)[C@H]1O; assay: PK-LDH coupled assay, NADH A340; assay type: biochemical, Candidatus Nitrososphaera gargensis; conditions: isopentenyl phosphate (1) 1 mM, 25 mM Tris pH 7.8, 5 mM MgCl2, 37 °C
From the text: (§1) PK-LDH coupled assay, NADH A340 on CNG

[9] = substrate: O=P(O)(O)OCc1ccccc1; assay: PK-LDH coupled assay, NADH A340; assay type: biochemical, Candidatus Nitrososphaera gargensis; conditions: ATP 1 mM (2 mM in methods), 25 mM Tris pH 7.8, 5 mM MgCl2, 37 °C
From the text: as §1

[10] = substrate: C=C(C)CCOP(=O)(O)O; assay: PK-LDH coupled assay, NADH A340; assay type: biochemical, Candidatus Nitrososphaera gargensis; conditions: ATP 1 mM (2 mM in methods), 25 mM Tris pH 7.8, 5 mM MgCl2, 37 °C
From the text: as §1

[11] = substrate: Nc1ncnc2c1ncn2[C@@H]1O[C@H](COP(=O)(O)OP(=O)(O)OP(=O)(O)O)[C@@H](O)[C@H]1O; assay: PK-LDH coupled assay, NADH A340; assay type: biochemical, Methanosarcina barkeri; conditions: isopentenyl phosphate (1) 1 mM, 25 mM Tris pH 7.8, 5 mM MgCl2, 37 °C
[12] = substrate: O=P(O)(O)OCc1ccccc1; assay: PK-LDH coupled assay, NADH A340; assay type: biochemical, Methanosarcina barkeri; conditions: ATP 1 mM (2 mM in methods), 25 mM Tris pH 7.8, 5 mM MgCl2, 37 °C
[13] = substrate: C=C(C)CCOP(=O)(O)O; assay: PK-LDH coupled assay, NADH A340; assay type: biochemical, Methanosarcina barkeri; conditions: ATP 1 mM (2 mM in methods), 25 mM Tris pH 7.8, 5 mM MgCl2, 37 °C

B1: MHM (Methanohalophilus mahii DSM 5219) (protein)
chain: MNEKNSDITILKIGGSVITDKSSNEGIVREKAIIRIAREISFFEGPLIIVHGAGSFGHPQAKRYSLAYKFSAEGSGVTHRSVASLNELFVNALAQRNVNAVGIHPMGCLVAKEGRISKSFLLAIQMMLEKGITPVLHGDVVMDTVKGSSVISGDQIVPYLASKLNAYRIGVGSAEDGVLDEHGHPIPLITPDNFEIASMHIGGSENTDVTGGMLGKVKEMLDMSRQTKVPSYIFNANAGGNVMSFLRGEMIGTAIKDKA
notes: N-His6 fusion, pET28a NdeI/EcoRI, codon-optimised synthetic gene, E. coli Rosetta2, Ni-NTA
Work on B1 yielded a Km [1] of 36 ± 4 µM, a kcat [1] of 4.1 s⁻¹ and a kcat/Km [1] of 120000 M⁻¹ s⁻¹. The Km [2] was 100 ± 30 µM, the kcat [2] was 6.3 ± 0.3 s⁻¹ and the kcat/Km [2] was 63000 M⁻¹ s⁻¹. The Km [3] was 70 ± 10 µM, the kcat [3] was 0.139 ± 0.008 s⁻¹ and the kcat/Km [3] was 1900 M⁻¹ s⁻¹. It also gave a Km [4] of 50 ± 10 µM, a kcat [4] of 5.2 ± 0.4 s⁻¹ and a kcat/Km [4] of 100000 M⁻¹ s⁻¹.

B2: TCP (Thermococcus paralvinellae) (protein)
chain: MIIIKLGGSVISDKEKEYSFHRHIVEQIAEEIAQFYPDESFILVHGGGSFGHPNAREYKITEGLVGDVDRKRIGFSKTHQAMLKLNDLIIQTFLEKGLPAYSVSSSSIFLLENKEVVYGELEILRKLLELKFIPVLFGDTAIALDKGIDILSGDQIVSYLAKMLKPSKVIFLMDVDGIYDRNPKERDAKLIEELNVEEIRHLLESSESAGIDVTGGIGNKLREALKIAKHSEVYFINGKVKENLGKAIRGEKVGTRLRKLEHPKIS
notes: as for B1
Work on B2 yielded a Km [1] of 70 ± 10 µM, a kcat [1] of 24 s⁻¹ and a kcat/Km [1] of 360000 M⁻¹ s⁻¹. It also gave a Km [5] of 15 ± 3 µM, a kcat [5] of 0.59 ± 0.03 s⁻¹ and a kcat/Km [5] of 39000 M⁻¹ s⁻¹. The Km [6] was 69 ± 10 µM, the kcat [6] was 0.039 ± 0.002 s⁻¹ and the kcat/Km [6] was 560 M⁻¹ s⁻¹. For the same protein, the Km [7] was 22 ± 6 µM, the kcat [7] was 0.62 ± 0.03 s⁻¹ and the kcat/Km [7] was 28000 M⁻¹ s⁻¹.

B3: CNG (Candidatus Nitrososphaera gargensis Ga9.2) (protein)
chain: MQKLALIKLGGSVVTFKDKPLAANTGAIDGISRVLAQLSTPAIIVHGGGSFGHYWSVKYDMHTKPAGYDPHGVSVVHESMIALNQIIINSMIRAGLNPYGMPPSVFAAGHKPVAAKIKQIYTMAKSEVMPVTFGDVVHMEGNKYSILSGDALMTMLAKVLRPSRVVFATNVDGIYKDMASRELMREIRVTTGRKKRSIEFSKASGADVTGGMQRKVAEAFKIASRGMDVLMVNGLMPERIAEAVVEGTRLQVGTVVKGSRR
notes: as for B1
Work on B3 yielded a Km [1] of 390 ± 90 µM, a kcat [1] of 0.87 s⁻¹ and a kcat/Km [1] of 2200 M⁻¹ s⁻¹. It also gave a Km [8] of 21 ± 5 µM, a kcat [8] of 0.81 ± 0.06 s⁻¹ and a kcat/Km [8] of 39000 M⁻¹ s⁻¹. For the same protein, the Km [9] was 1200 ± 200 µM, the kcat [9] was 0.83 ± 0.07 s⁻¹ and the kcat/Km [9] was 700 M⁻¹ s⁻¹. The Km [10] was 61 ± 9 µM, the kcat [10] was 1.12 ± 0.05 s⁻¹ and the kcat/Km [10] was 18000 M⁻¹ s⁻¹.

B4: MSB (Methanosarcina barkeri 3) (protein)
chain: MNVSTEPVILKLGGSVITDKAADQGVVREDSLRRIAKEVSEYRGKMIIVHGAGSFGHTYAKKYQLGKVFDPEGAIVTHESVKKLASRVVDTLNEYGVRAIAVHPMCCTICRNGRIESMYLDNIKLMLENGLVPVLHGDVVMDLELRACVLSGDQIVPYLAKELKITRLGLGSAEDGVLDNDGKTVPEITPKTFEDFKHYIRGSGSTDVTGGMLGKVQELLELSKTSCITSYIFNAGKDDNIYRFLNGEPMGTTISPDKRV
notes: as for B1
With B4 the Km [1] was 32 ± 7 µM, the kcat [1] was 10.1 s⁻¹ and the kcat/Km [1] was 310000 M⁻¹ s⁻¹. For the same protein, the Km [11] was 90 ± 10 µM, the kcat [11] was 9.1 ± 0.4 s⁻¹ and the kcat/Km [11] was 100000 M⁻¹ s⁻¹. For the same protein, the Km [12] was 45 ± 8 µM, the kcat [12] was 1.23 ± 0.07 s⁻¹ and the kcat/Km [12] was 27000 M⁻¹ s⁻¹. The Km [13] was 27 ± 5 µM, the kcat [13] was 10.3 ± 0.4 s⁻¹ and the kcat/Km [13] was 380000 M⁻¹ s⁻¹.
